According to patent publication US20260297200:

Biological target: EGFR-His (human ECD) (human)
Test: BLI

Kd: 1.69 nM
Substance: Cetuximab Fab-His
